Nine variants from IntAct's records for PubMed 31515488 can be followed below.

The labels stand for the following.
B1: Synaptotagmin-like protein 4 (Homo sapiens), Q96C24 (parent)
chain: MSELLDLSFLSEEEKDLILSVLQRDEEVRKADEKRIRRLKNELLEIKRKGAKRGSQHYSDRTCARCQESLGRLSPKTNTCRGCNHLVCRDCRIQESNGTWRCKVCAKEIELKKATGDWFYDQKVNRFAYRTGSEIIRMSLRHKPAVSKRETVGQSLLHQTQMGDIWPGRKIIQERQKEPSVLFEVPKLKSGKSALEAESESLDSFTADSDSTSRRDSLDKSGLFPEWKKMSAPKSQVEKETQPGGQNVVFVDEGEMIFKKNTRKILRPSEYTKSVIDLRPEDVVHESGSLGDRSKSVPGLNVDMEEEEEEEDIDHLVKLHRQKLARSSMQSGSSMSTIGSMMSIYSEAGDFGNIFVTGRIAFSLKYEQQTQSLVVHVKECHQLAYADEAKKRSNPYVKTYLLPDKSRQGKRKTSIKRDTINPLYDETLRYEIPESLLAQRTLQFSVWHHGRFGRNTFLGEAEIQMDSWKLDKKLDHCLPLHGKISAESPTGLPSHKGELVVSLKYIPASKTPVGGDRKKSKGGEGGELQVWIKEAKNLTAAKAGGTSDSFVKGYLLPMRNKASKRKTPVMKKTLNPHYNHTFVYNGVRLEDLQHMCLELTVWDREPLASNDFLGGVRLGVGTGISNGEVVDWMDSTGEEVSLWQKMRQYPGSWAEGTLQLRSSMAKQKLGL
B2: Tuftelin-interacting protein 11 (Homo sapiens), Q9UBB9 (parent)
chain: MSLSHLYRDGEGRIDDDDDERENFEITDWDLQNEFNPNRQRHWQTKEEATYGVWAERDSDDERPSFGGKRARDYSAPVNFISAGLKKGAAEEAELEDSDDEEKPVKQDDFPKDFGPRKLKTGGNFKPSQKGFAGGTKSFMDFGSWERHTKGIGQKLLQKMGYVPGRGLGKNAQGIINPIEAKQRKGKGAVGAYGSERTTQSMQDFPVVDSEEEAEEEFQKELSQWRKDPSGSKKKPKYSYKTVEELKAKGRISKKLTAPQKELSQVKVIDMTGREQKVYYSYSQISHKHNVPDDGLPLQSQQLPQSGKEAKAPGFALPELEHNLQLLIDLTEQEIIQNDRQLQYERDMVVNLFHELEKMTEVLDHEERVISNLSKVLEMVEECERRMQPDCSNPLTLDECARIFETLQDKYYEEYRMSDRVDLAVAIVYPLMKEYFKEWDPLKDCTYGTEIISKWKSLLENDQLLSHGGQDLSADAFHRLIWEVWMPFVRNIVTQWQPRNCDPMVDFLDSWVHIIPVWILDNILDQLIFPKLQKEVENWNPLTDTVPIHSWIHPWLPLMQARLEPLYSPIRSKLSSALQKWHPSDSSAKLILQPWKDVFTPGSWEAFMVKNIVPKLGMCLGELVINPHQQHMDAFYWVIDWEGMISVSSLVGLLEKHFFPKWLQVLCSWLSNSPNYEEITKWYLGWKSMFSDQVLAHPSVKDKFNEALDIMNRAVSSNVGAYMQPGARENIAYLTHTERRKDFQYEAMQERREAENMAQRGIGVAASSVPMNFKDLIETKAEEHNIVFMPVIGKRHEGKQLYTFGRIVIYIDRGVVFVQGEKTWVPTSLQSLIDMAK
partner: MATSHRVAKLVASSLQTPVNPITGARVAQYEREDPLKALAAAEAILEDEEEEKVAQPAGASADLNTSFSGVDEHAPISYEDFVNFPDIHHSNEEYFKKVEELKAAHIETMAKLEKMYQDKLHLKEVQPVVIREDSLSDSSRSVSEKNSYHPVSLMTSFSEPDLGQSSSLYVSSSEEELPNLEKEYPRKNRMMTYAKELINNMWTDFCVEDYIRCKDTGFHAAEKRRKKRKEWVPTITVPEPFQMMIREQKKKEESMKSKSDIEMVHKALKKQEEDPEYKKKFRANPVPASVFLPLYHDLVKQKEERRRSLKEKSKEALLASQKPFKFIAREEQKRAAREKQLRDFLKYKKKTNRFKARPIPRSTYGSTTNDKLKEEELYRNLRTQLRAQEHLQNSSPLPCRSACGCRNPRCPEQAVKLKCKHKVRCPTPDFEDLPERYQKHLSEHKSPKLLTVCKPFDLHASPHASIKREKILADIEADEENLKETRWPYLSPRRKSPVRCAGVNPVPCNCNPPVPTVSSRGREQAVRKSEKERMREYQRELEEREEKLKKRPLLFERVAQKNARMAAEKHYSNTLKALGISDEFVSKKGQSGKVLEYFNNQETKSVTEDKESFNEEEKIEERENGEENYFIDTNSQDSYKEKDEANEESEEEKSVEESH
B3: Potassium channel subfamily K member 1 (Homo sapiens), O00180 (parent)
chain: MLQSLAGSSCVRLVERHRSAWCFGFLVLGYLLYLVFGAVVFSSVELPYEDLLRQELRKLKRRFLEEHECLSEQQLEQFLGRVLEASNYGVSVLSNASGNWNWDFTSALFFASTVLSTTGYGHTVPLSDGGKAFCIIYSVIGIPFTLLFLTAVVQRITVHVTRRPVLYFHIRWGFSKQVVAIVHAVLLGFVTVSCFFFIPAAVFSVLEDDWNFLESFYFCFISLSTIGLGDYVPGEGYNQKFRELYKIGITCYLLLGLIAMLVVLETFCELHELKKFRKMFYVKKDKDEDQVHIIEHDQLSFSSITDQAAGMKEDQKQNEPFVATQSSACVDGPANH
partner: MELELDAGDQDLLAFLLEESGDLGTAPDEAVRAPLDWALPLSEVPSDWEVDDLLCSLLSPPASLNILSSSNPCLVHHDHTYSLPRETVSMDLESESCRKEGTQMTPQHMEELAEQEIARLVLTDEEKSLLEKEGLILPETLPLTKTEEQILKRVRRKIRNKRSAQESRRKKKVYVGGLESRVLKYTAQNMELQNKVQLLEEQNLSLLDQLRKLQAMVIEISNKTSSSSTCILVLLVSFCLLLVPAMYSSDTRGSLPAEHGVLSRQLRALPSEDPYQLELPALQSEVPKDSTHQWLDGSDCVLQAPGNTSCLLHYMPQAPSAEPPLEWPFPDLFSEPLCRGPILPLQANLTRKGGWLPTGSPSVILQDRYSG
B4: Oxidative stress-induced growth inhibitor 1 (Homo sapiens), Q9UJX0 (parent)
chain: MSSSRKDHLGASSSEPLPVIIVGNGPSGICLSYLLSGYTPYTKPDAIHPHPLLQRKLTEAPGVSILDQDLDYLSEGLEGRSQSPVALLFDALLRPDTDFGGNMKSVLTWKHRKEHAIPHVVLGRNLPGGAWHSIEGSMVILSQGQWMGLPDLEVKDWMQKKRRGLRNSRATAGDIAHYYRDYVVKKGLGHNFVSGAVVTAVEWGTPDPSSCGAQDSSPLFQVSGFLTRNQAQQPFSLWARNVVLATGTFDSPARLGIPGEALPFIHHELSALEAATRVGAVTPASDPVLIIGAGLSAADAVLYARHYNIPVIHAFRRAVDDPGLVFNQLPKMLYPEYHKVHQMMREQSILSPSPYEGYRSLPRHQLLCFKEDCQAVFQDLEGVEKVFGVSLVLVLIGSHPDLSFLPGAGADFAVDPDQPLSAKRNPIDVDPFTYQSTRQEGLYAMGPLAGDNFVRFVQGGALAVASSLLRKETRKPP
B5: Rho guanine nucleotide exchange factor 3 (Homo sapiens), Q9NR81 (parent)
chain: MVAKDYPFYLTVKRANCSLELPPASGPAKDAEEPSNKRVKPLSRVTSLANLIPPVKATPLKRFSQTLQRSISFRSESRPDILAPRPWSRNAAPSSTKRRDSKLWSETFDVCVNQMLTSKEIKRQEAIFELSQGEEDLIEDLKLAKKAYHDPMLKLSIMTEQELNQIFGTLDSLIPLHEELLSQLRDVRKPDGSTEHVGPILVGWLPCLSSYDSYCSNQVAAKALLDHKKQDHRVQDFLQRCLESPFSRKLDLWNFLDIPRSRLVKYPLLLREILRHTPNDNPDQQHLEEAINIIQGIVAEINTKTGESECRYYKERLLYLEEGQKDSLIDSSRVLCCHGELKNNRGVKLHVFLFQEVLVITRAVTHNEQLCYQLYRQPIPVKDLLLEDLQDGEVRLGGSLRGAFSNNERIKNFFRVSFKNGSQSQTHSLQANDTFNKQQWLNCIRQAKETVLCAAGQAGVLDSEGSFLNPTTGSRELQGETKLEQMDQSDSESDCSMDTSEVSLDCERMEQTDSSCGNSRHGESNV
B6: Cyclin-dependent kinase 4 (Homo sapiens), P11802 (parent)
chain: MATSRYEPVAEIGVGAYGTVYKARDPHSGHFVALKSVRVPNGGGGGGGLPISTVREVALLRRLEAFEHPNVVRLMDVCATSRTDREIKVTLVFEHVDQDLRTYLDKAPPPGLPAETIKDLMRQFLRGLDFLHANCIVHRDLKPENILVTSGGTVKLADFGLARIYSYQMALTPVVVTLWYRAPEVLLQSTYATPVDMWSVGCIFAEMFRRKPLFCGNSEADQLGKIFDLIGLPPEDDWPRDVSLPRGAFPPRGPRPVQSVVPEMEESGAQLLLEMLTFNPHKRISAFRALQHSYLHKDEGNPE

Variants of B1 are the subject of the first assay. Particulars: with hm20a_human HMG20A.
Consider D252G, for which the “effect of a mutation on the interaction” value is reported as “with no effect”.

As to M646I, the “effect of a mutation on the interaction” value is on record as “with no effect”.

Another assay covers variants of B1. The following applies: with cep70_human CEP70, Q8NHQ1.
Chain of cep70_human CEP70, Q8NHQ1 (Q8NHQ1 whole entry): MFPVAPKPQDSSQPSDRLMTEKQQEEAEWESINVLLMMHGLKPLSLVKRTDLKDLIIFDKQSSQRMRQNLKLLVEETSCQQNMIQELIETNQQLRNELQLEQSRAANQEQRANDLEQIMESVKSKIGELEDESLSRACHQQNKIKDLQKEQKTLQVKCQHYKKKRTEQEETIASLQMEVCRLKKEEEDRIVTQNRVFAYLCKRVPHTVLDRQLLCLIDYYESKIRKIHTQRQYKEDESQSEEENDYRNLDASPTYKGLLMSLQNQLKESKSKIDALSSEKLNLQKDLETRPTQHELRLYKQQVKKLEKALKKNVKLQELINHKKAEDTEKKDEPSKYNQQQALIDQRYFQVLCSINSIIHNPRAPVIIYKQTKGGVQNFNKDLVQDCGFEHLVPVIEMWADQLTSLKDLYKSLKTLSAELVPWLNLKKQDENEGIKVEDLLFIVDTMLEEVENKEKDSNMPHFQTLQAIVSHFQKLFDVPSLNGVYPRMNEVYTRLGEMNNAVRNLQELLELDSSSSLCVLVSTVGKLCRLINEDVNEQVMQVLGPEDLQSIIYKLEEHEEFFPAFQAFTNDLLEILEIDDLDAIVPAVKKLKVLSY
Turning to D252G, the “effect of a mutation on the interaction” value was “with no effect”.

On to M646I, for which the “effect of a mutation on the interaction” value is given as “disrupting interaction strength”.

Variants of B2 are the subject of another assay. The following applies: with FAM161A.
On to S688L, for which the “effect of a mutation on the interaction” value is given as “with no effect”.

Turning to R8Q, the “effect of a mutation on the interaction” value is “with no effect”.

A further assay covers variants of B3. The following applies: with creb3_human CREB3, O43889.
On to R171H, for which the “effect of a mutation on the interaction” value is recorded as “with no effect”.

In a further assay the parent is B4. The following applies: with htf4_human TCF12, Q99081.
Chain of htf4_human TCF12, Q99081 (Q99081 whole entry): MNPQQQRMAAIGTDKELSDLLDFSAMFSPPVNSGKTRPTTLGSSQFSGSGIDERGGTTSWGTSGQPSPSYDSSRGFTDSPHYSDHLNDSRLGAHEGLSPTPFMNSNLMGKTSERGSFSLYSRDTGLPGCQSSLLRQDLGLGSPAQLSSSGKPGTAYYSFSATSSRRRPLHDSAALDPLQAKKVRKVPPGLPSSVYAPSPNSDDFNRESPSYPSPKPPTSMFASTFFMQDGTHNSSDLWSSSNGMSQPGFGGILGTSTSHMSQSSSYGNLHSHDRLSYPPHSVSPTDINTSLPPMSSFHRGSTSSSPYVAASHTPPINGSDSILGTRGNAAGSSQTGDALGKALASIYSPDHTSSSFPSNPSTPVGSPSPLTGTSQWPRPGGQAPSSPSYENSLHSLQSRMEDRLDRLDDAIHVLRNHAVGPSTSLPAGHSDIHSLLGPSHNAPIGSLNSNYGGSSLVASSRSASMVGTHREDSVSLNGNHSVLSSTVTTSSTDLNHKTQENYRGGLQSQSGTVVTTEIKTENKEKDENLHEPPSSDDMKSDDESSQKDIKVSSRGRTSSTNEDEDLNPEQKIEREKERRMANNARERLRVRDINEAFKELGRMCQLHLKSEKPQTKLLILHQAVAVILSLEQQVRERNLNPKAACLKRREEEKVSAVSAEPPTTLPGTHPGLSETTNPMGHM
In the case of D320N, the “effect of a mutation on the interaction” value is on record as “with no effect”.

For the variant S236L, the “effect of a mutation on the interaction” value is “disrupting interaction strength”.

The variants in another assay derive from B4. The following applies: with itf2_human TCF4, P15884.
Chain of itf2_human TCF4, P15884 (P15884 whole entry): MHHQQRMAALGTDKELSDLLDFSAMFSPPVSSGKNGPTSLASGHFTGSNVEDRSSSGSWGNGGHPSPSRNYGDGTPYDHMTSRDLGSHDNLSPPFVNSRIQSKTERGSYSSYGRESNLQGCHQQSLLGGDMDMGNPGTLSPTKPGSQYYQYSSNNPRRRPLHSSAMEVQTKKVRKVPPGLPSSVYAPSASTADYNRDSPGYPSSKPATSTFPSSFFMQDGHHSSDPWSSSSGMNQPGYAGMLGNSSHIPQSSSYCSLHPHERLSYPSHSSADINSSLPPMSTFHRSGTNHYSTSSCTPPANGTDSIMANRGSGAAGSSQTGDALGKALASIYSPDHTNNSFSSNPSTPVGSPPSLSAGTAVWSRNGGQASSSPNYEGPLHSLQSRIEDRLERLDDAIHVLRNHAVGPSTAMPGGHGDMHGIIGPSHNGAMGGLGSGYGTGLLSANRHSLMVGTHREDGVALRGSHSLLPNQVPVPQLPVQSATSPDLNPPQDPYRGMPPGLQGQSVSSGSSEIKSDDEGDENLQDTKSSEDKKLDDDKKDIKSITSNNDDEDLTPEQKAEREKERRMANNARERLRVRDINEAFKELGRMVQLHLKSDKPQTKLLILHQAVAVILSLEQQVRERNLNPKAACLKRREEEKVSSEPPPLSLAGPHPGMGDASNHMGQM
Consider D320N, for which the “effect of a mutation on the interaction” value was “with no effect”.

Consider S236L, for which the “effect of a mutation on the interaction” value is “with no effect”.

In another assay the parent is B4. Particulars: with ikzf3_human IKZF3, Q9UKT9.
Chain of ikzf3_human IKZF3, Q9UKT9 (Q9UKT9 whole entry): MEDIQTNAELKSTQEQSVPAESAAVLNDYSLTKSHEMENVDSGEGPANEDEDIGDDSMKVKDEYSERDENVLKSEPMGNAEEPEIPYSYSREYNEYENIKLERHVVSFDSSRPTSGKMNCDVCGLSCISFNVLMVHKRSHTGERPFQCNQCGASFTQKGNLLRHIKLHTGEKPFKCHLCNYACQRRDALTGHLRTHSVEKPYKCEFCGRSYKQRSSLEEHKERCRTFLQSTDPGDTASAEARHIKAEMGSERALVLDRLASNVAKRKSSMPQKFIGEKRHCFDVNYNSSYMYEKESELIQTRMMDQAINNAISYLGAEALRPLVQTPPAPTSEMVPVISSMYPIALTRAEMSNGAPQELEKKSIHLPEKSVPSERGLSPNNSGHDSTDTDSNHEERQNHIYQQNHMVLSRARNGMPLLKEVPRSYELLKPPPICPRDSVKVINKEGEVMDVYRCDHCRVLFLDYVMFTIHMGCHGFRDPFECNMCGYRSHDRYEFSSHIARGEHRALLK
Turning to D320N, the “effect of a mutation on the interaction” value is “with no effect”.

As to S236L, the “effect of a mutation on the interaction” value is recorded as “disrupting interaction strength”.

The next assay covers variants of B5. The following applies: with tri23_human TRIM23, P36406.
Chain of tri23_human TRIM23, P36406 (P36406 whole entry): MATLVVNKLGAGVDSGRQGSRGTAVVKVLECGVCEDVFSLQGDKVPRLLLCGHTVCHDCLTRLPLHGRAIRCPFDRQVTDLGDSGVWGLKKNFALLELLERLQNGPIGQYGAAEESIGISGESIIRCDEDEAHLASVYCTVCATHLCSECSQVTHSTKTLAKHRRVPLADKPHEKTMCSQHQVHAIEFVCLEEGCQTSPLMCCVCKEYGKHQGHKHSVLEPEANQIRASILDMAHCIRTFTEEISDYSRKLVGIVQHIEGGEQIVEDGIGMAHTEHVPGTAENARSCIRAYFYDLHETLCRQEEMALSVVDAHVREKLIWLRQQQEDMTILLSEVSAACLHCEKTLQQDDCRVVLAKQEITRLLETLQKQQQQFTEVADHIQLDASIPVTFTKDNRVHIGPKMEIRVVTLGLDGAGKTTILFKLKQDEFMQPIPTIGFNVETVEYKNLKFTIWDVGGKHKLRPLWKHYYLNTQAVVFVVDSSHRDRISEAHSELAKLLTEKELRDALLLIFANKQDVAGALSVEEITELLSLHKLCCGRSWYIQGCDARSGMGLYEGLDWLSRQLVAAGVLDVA
Regarding N432S, the “effect of a mutation on the interaction” value was “with no effect”.

Another assay covers variants of B6. The following applies: with ccnd1_human CCND1, P24385.
Chain of ccnd1_human CCND1, P24385 (P24385 whole entry): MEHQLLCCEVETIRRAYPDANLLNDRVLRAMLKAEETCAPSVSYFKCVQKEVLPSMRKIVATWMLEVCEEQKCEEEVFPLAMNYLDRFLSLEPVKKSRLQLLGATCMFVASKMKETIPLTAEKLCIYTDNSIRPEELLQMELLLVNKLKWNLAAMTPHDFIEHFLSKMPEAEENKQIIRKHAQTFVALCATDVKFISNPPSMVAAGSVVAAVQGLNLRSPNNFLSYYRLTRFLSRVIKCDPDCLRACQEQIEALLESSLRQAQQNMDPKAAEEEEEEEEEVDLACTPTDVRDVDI
With R24H, the “effect of a mutation on the interaction” value is given as “with no effect”.
